Data on 3 molecules can be found in article PMC12628392, “Reengineered Anti-CD4 Cys-diabody Variants for ^89Zr-immunoPET of CD4^+ T Cells in Immunocompetent Mice” (Molecular Imaging and Biology, 2025).

One test addresses T1, recombinant mouse CD4 (Mus musculus, strain , UniProt P06332).
T1 construct: CD4, mouse, recombinant; the supplementary information may tell source and limits; also called immobilized CD4 antigen; soluble murine CD4
Nature of the test: ELISA; saturation binding curves on immobilized recombinant mouse CD4; half-maximal binding (EC50), apparent affinity. The conditions noted are these: both partners purified. A general note: In an ELISA, binding on a coated surface is turned into a signal by an enzyme label.

In another test the target is DFO-GK1.5 FR cDb (rat). Nature of the test: SEC; DFO-conjugated cDbs (inter-chain disulfide broken) compared with unconjugated cDbs; single peaks. A general note: In gel filtration, larger molecules generally elute earlier.
The target in test [1] is mouse CD4 on splenocytes / CD4+ T cells (mouse (endogenous in splenocytes)) (UniProt P06332).
The target is the same in test [2]. This is another data set of the same source.
The target of the next test is DFO-GK1.5 N80D cDb (rat). Nature of the test: SEC; DFO-conjugated cDbs (inter-chain disulfide broken) compared with unconjugated cDbs; single peaks.
The next test addresses T2, BSA (Bos taurus, UniProt P02769).
T2 construct: serum albumin, printed only as BSA; also called control (BSA)
Nature of the test: ELISA; control: BSA instead of CD4; data not shown. The conditions noted are these: both partners purified.

The EC50 is the midpoint of the concentration-response curve. One may read the stoichiometry N as the number of molecules, sites or subunits per partner or assembly.

mouse CD4 on splenocytes / CD4+ T cells (mouse (endogenous in splenocytes)), sequence (P06332 27-457): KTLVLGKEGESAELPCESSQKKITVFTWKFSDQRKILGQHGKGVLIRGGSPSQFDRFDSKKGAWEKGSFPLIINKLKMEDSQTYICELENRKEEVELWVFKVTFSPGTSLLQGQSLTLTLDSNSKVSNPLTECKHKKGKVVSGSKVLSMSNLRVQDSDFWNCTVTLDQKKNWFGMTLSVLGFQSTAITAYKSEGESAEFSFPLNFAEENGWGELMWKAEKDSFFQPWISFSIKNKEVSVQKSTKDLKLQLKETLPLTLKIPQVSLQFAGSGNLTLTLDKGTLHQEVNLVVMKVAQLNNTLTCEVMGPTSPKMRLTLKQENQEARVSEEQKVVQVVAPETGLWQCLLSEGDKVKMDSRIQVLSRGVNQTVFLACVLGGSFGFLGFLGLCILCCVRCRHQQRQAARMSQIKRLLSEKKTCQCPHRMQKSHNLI
T1 sequence (P06332 27-457): as above
T2 sequence (P02769 25-607): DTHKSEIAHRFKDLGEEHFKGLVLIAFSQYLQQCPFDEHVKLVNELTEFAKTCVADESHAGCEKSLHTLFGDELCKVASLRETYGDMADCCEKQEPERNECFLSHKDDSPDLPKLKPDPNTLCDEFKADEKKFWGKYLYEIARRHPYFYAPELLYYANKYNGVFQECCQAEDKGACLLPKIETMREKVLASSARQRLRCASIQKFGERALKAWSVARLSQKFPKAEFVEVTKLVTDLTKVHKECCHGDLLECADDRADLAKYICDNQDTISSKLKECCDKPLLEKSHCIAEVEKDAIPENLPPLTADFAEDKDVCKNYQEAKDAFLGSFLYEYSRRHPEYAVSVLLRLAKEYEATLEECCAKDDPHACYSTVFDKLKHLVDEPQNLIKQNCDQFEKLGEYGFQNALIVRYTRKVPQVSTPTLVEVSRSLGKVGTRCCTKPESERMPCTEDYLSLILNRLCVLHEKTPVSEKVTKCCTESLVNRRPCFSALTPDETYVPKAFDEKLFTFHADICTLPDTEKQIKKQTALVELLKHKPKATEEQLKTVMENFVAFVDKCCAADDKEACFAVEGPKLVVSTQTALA

B1: Parental anti-mouse CD4 antibody GK1.5 (rat IgG2b,k) (antibody, V domains shown)
VH: EVQLQQSGAELGKPGTSVKLSCKVSDYNIRRTYMHWVNQRPGKGLEWIGRIDPANGNTIYGEKFKSKATLTADTSSNTAYMQLSQLKSDDTAFYYCAIGVQYLDYWGQGVMVTVSS
VL: DIVLTQSPASLAVSPGERVTISCRATESVSTLIHWFQQRPGQQPKLLIYLTSHLDSGVPARFSGSGSGTDFTLTIDPVEADDTATYYCQQTWNDPWTFGGGTKLELK
notes: VH of hybridoma GK1.5; constant region of rat IgG2b heavy chain; VL of hybridoma GK1.5; constant region of rat kappa light chain; rat IgG2b, kappa; also called GK1.5 IgG; parental full-length GK1.5 IgG; source: bought: BioLegend Cat# 100401; copies: 2 + 2
On to B1, for which, in the test with recombinant mouse CD4, the EC50 was determined as 2.25 nM.

B2: GK1.5 FR cDb (scFv, V domains shown)
VH: EVKLQESGGGLVQPGRSLKLSCAASGFNIRRTYMHWVRQAPGKGLEWIGRIDPANGNTIYGEKFKSKFTISRDNAQNTLYLQMSKLGSEDTAIYYCAIGVQYLDYWGQGVMVTVSS
VL: DIVLTQSPAMAMSPGERITISCRATESVSTLIHWYQQKPGQQPKLLIYLTSHLDSGVPARFSGSGSGTDFTLTIDPVEANDTATYYCQQTWNDPWTFGGGTKLELK
notes: as the VH of m1: CDRs of GK1.5 on the VH framework of YTS169; five amino acid linker, printed as G4S (VH-G4S-VL-Cys-His); C-terminal cysteine residue for site-specific conjugation, before the His6 tag; cys-diabody: covalent homodimer of the scFv; parent of m1; also called CDR-grafted cys-diabody; glycosylated GK1.5 FR cDb; source: production and purification told in the supplementary information
Regarding B2, the stoichiometry N in the test with DFO-GK1.5 FR cDb (rat) is 2. The binding result with recombinant mouse CD4 is reported as “binds”. In test [1], the ex vivo biodistribution 22 h p.i. of ^89Zr-GK1.5 FR cDb (2 µg) in C57BL/6J mice: uptake in spleen turned out to be 20.7 %ID/g; the ex vivo biodistribution 22 h p.i. of ^89Zr-GK1.5 FR cDb: uptake in axillary, brachial lymph nodes turned out to be 10.5 %ID/g; the ex vivo biodistribution 22 h p.i. of ^89Zr-GK1.5 FR cDb: uptake in cervical lymph nodes was 16.7 %ID/g; the ex vivo biodistribution 22 h p.i. of ^89Zr-GK1.5 FR cDb: uptake in inguinal lymph nodes was determined as 13 %ID/g.

B3: GK1.5 N80D cDb (scFv, V domains shown)
VH: EVKLQESGGGLVQPGRSLKLSCAASGFNIRRTYMHWVRQAPGKGLEWIGRIDPANGNTIYGEKFKSKFTISRDNAQNTLYLQMSKLGSEDTAIYYCAIGVQYLDYWGQGVMVTVSS
VL: DIVLTQSPAMAMSPGERITISCRATESVSTLIHWYQQKPGQQPKLLIYLTSHLDSGVPARFSGSGSGTDFTLTIDPVEADDTATYYCQQTWNDPWTFGGGTKLELK
notes: VH: CDRs of GK1.5 (contact definition) on the VH framework of YTS169; five amino acid linker, printed as G4S (VH-G4S-VL-Cys-His); VL of GK1.5 FR cDb (CDRs of GK1.5 on the VL framework of YTS169) with N80D (L81 in Kabat numbering); C-terminal cysteine residue for site-specific conjugation, before the His6 tag; cys-diabody: covalent homodimer of the scFv (MW 52.2 kDa), inter-chain disulfide between …
As to B3, the ex vivo biodistribution 22 h p.i. of ^89Zr-GK1.5 N80D cDb, blocked by co-injection of non-radioactive GK1.5 N80D cDb: uptake in spleen (value of the text, differs from Table 2) in test [2] was found to be 8.1 %ID/g. The stoichiometry N with DFO-GK1.5 N80D cDb (rat) was found to be 2. Besides, the binding result with BSA is reported as “no binding”. The EC50 with recombinant mouse CD4 came to 3 nM. In test [1], the ex vivo biodistribution 22 h p.i. of ^89Zr-GK1.5 N80D cDb (2 µg) in C57BL/6J mice: uptake in spleen amounted to 48.5 %ID/g; the ex vivo biodistribution 22 h p.i. of ^89Zr-GK1.5 N80D cDb, blocked by co-injection of 60 µg (3 mg/kg) non-radioactive GK1.5 N80D cDb: uptake in spleen amounted to 9.7 %ID/g; the ex vivo biodistribution 22 h p.i. of ^89Zr-GK1.5 N80D cDb, blocked by co-injection of non-radioactive GK1.5 N80D cDb: uptake in axillary, brachial lymph nodes was 16.6 %ID/g; the ex vivo biodistribution 22 h p.i. of ^89Zr-GK1.5 N80D cDb, blocked by co-injection of non-radioactive GK1.5 N80D cDb: uptake in cervical lymph nodes turned out to be 20 %ID/g. Further, in test [1], the ex vivo biodistribution 22 h p.i. of ^89Zr-GK1.5 N80D cDb, blocked by co-injection of non-radioactive GK1.5 N80D cDb: uptake in inguinal lymph nodes is 18.3 %ID/g; the ex vivo biodistribution 22 h p.i. of ^89Zr-GK1.5 N80D cDb: uptake in axillary, brachial lymph nodes amounted to 43.5 %ID/g; the ex vivo biodistribution 22 h p.i. of ^89Zr-GK1.5 N80D cDb: uptake in cervical lymph nodes turned out to be 66.2 %ID/g; the ex vivo biodistribution 22 h p.i. of ^89Zr-GK1.5 N80D cDb: uptake in inguinal lymph nodes is 44.3 %ID/g.
